Measurements as given in article PMC4366199, “Arfaptin-1 Negatively Regulates Arl1-Mediated Retrograde Transport” (PLoS ONE, 2015).
Each block holds one binder with its values, some of them ahead of it.

Target: T1, GST-Arl1QL (Arf-like protein 1, Gln71 to Leu, putative active GTP-bound form) (human, UniProt P40616 1-181, Gln71 to Leu (Arl1QL))
T1 construct: Arf-like protein 1 (Arl1), human; fragment encoding Arl1QL subcloned into pGEX4T via EcoRI; Loaded with GTPγS on the resin; also called active form of Arl1; source: E. coli BL21, immobilized on glutathione-sepharose resin, exchanged for GTPγS
T1 sequence (looked up): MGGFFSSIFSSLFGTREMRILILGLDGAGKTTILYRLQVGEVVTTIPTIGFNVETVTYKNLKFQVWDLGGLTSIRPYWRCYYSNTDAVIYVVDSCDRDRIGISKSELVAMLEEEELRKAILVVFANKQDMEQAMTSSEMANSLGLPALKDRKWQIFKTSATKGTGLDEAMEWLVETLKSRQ
Test: pull-down; GST fusion proteins (5 μg) immobilized on glutathione-sepharose, incubated with GTPγS (QL) or GDP (TN); HeLa lysates (2.5 mg), endogenous proteins; 12.5% SDS-PAGE and western blotting
Conditions: one partner purified

fold change of the level bound, against Arf1QL: 1.84 fold
B1: arfaptin-1a (Arf-interacting protein 1, short isoform), endogenous (natural protein, human (endogenous in HeLa), UniProt P53367-2 1-341, looked up)
chain: MAQESPKNSAAEIPVTSNGEVDDSREHSFNRDLKHSLPSGLGLSETQITSHGFDNTKEGVIEAGAFQGGQRTQTKSGPVILADEIKNPAMEKLELVRKWSLNTYKCTRQIISEKLGRGSRTVDLELEAQIDILRDNKKKYENILKLAQTLSTQLFQMVHTQRQLGDAFADLSLKSLELHEEFGYNADTQKLLAKNGETLLGAINFFIASVNTLVNKTIEDTLMTVKQYESARIEYDAYRTDLEELNLGPRDANTLPKIEQSQHLFQAHKEKYDKMRNDVSVKLKFLEENKVKVLHNQLVLFHNAIAAYFAGNQKQLEQTLKQFHIKLKTPGVDAPSWLEEQ
notes: arfaptin-1a, short isoform of arfaptin-1; lacks the insertion (residues 69-100) of arfaptin-1b; also called arfaptin-1a (short form); source: endogenous, HeLa lysate

fold change of the level bound, against Arf1QL: 1.84 fold
B2: arfaptin-1b (Arf-interacting protein 1b, long isoform), endogenous (natural protein, human (endogenous in HeLa), UniProt P53367 1-373, looked up)
chain: MAQESPKNSAAEIPVTSNGEVDDSREHSFNRDLKHSLPSGLGLSETQITSHGFDNTKEGVIEAGAFQGSPAPPLPSVMSPSRVAASRLAQQGSDLIVPAGGQRTQTKSGPVILADEIKNPAMEKLELVRKWSLNTYKCTRQIISEKLGRGSRTVDLELEAQIDILRDNKKKYENILKLAQTLSTQLFQMVHTQRQLGDAFADLSLKSLELHEEFGYNADTQKLLAKNGETLLGAINFFIASVNTLVNKTIEDTLMTVKQYESARIEYDAYRTDLEELNLGPRDANTLPKIEQSQHLFQAHKEKYDKMRNDVSVKLKFLEENKVKVLHNQLVLFHNAIAAYFAGNQKQLEQTLKQFHIKLKTPGVDAPSWLEEQ
notes: arfaptin-1b, long isoform of arfaptin-1 with an insertion (residues 69-100) absent from arfaptin-1a; source: endogenous, HeLa lysate
